Values quoted from earlier work as cited in patent US12419862B2, “Use of a cathepsin s inhibitor against the formation of anti-drug antibodies” (Hoffmann-La Roche Inc., priority 2018, dated 2025).

Settings: current standard of care in IBD; cited from earlier work

Row | Substance | reported immunogenicity rates
1 | adalimumab | ≤ 26%
2 | infliximab: anti-TNFalpha antibody, known to be highly immunogenic | up to 51%
